According to paper PMC4652764, “The La-related protein 1-specific domain repurposes HEAT-like repeats to directly bind a 5′TOP sequence”:

Experiments:
Conditions in all cases: protein: recombinant; tags: His6-MBP removed by TEV; glycine linker remnant; label: 5'-32P (EMSA, probing)
[1] = target: DM15 R840E (human, UniProt Q6PKG0 873-1023, R917E); assay: EMSA; up to 30 uM protein; EMSA: 20 mM Tris-HCl pH 8, 150 mM NaCl, 10% glycerol, 1 mM DTT, 0.5 ug tRNA, 1 ug BSA, <2 nM RNA, 30 min on ice, native 0.5x TBE gel at 4 C
[2] = target: DM15 Y883A (human, UniProt Q6PKG0 873-1023, Y960A); assay: as above
[3] = target: DM15 GQ908-909AA (human, UniProt Q6PKG0 873-1023, G985A;Q986A); assay: EMSA; up to 150 uM; two-state shift like WT, more protein needed for maximum shift; EMSA: 20 mM Tris-HCl pH 8, 150 mM NaCl, 10% glycerol, 1 mM DTT, 0.5 ug tRNA, 1 ug BSA, <2 nM RNA, 30 min on ice, native 0.5x TBE gel at 4 C

## CCUCUUUUCCGUGGCGCCUC (ssRNA) [RPS6-20mer]
[1]
  binding result: no binding
[2]
  binding result: no binding
[3]
  binding result: binds
